# Laboratory results: publication doi:10.1101/2020.03.30.016881 (bioRxiv, 2020)
# No end group written: not given here. TMR = tetramethylrhodamine (5,6-carboxy TMR) linked to N-terminus
# Molecular target: E. coli DnaK (Hsp70), unlabelled (E. coli, UniProt P0A6Y8 1-638)
# Assay: fluorescence polarisation
# Sequence of E. coli DnaK (Hsp70), unlabelled (P0A6Y8 whole entry): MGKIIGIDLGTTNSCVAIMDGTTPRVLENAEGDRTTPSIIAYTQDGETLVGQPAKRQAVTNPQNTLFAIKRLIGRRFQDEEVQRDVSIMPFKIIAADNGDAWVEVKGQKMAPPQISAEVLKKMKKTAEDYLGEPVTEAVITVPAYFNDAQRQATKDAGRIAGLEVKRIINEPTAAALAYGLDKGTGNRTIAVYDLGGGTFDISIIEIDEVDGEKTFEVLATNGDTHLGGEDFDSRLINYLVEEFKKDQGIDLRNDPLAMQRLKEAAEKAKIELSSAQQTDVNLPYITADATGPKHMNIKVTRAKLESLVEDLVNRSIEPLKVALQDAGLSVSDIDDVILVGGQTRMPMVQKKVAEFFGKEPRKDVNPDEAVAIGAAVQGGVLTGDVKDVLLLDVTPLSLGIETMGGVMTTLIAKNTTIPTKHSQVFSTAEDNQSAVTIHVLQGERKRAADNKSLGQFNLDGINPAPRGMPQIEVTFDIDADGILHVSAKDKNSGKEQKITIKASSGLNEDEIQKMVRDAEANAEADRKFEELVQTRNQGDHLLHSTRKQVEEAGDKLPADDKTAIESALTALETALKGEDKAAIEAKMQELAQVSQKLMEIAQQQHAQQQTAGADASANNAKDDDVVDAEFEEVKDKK
binder,measurement,value
{TMR}-KCNTATCATQRLANFLVHSSNNFGAILSSTNVGSNTY (ends and bridges not checked) [TMR-IAPP (human IAPP labelled with tetramethylrhodamine at the N-terminus)],Kd,2.1 ± 0.9 µM
